One block for each binder: values may come before it.
Experiments:
P3A = biological target: T1, P3A; assay: two-hybrid library CCNG1;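 note: natural log of median RNA to DNA barcode read ratio; higher means stronger binding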
T1 chain: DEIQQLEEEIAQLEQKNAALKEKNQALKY

P4A = biological target: T2, P4A; assay: two-hybrid library CCNG1;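 note: natural log of median RNA to DNA barcode read ratio; higher means stronger binding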
T2 chain: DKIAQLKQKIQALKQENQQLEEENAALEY

P5A = biological target: T3, P5A; assay: two-hybrid library CCNG1;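 note: natural log of median RNA to DNA barcode read ratio; higher means stronger binding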
T3 chain: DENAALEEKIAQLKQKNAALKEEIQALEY

P6A = biological target: T4, P6A; assay: two-hybrid library CCNG1;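 note: natural log of median RNA to DNA barcode read ratio; higher means stronger binding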
T4 chain: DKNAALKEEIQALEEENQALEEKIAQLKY

P7A = biological target: T5, P7A; assay: two-hybrid library CCNG1;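 note: natural log of median RNA to DNA barcode read ratio; higher means stronger binding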
T5 chain: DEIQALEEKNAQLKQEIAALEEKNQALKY

P8A = biological target: T6, P8A; assay: two-hybrid library CCNG1;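 note: natural log of median RNA to DNA barcode read ratio; higher means stronger binding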
T6 chain: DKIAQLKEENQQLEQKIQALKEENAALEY

P9A = biological target: T7, P9A; assay: two-hybrid library CCNG1
T7 chain: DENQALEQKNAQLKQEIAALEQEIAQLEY

O14 [1] = biological target: T8, O14; assay: two-hybrid library CCNG1
T8 chain: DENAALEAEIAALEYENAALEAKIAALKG

O15 [2] = biological target: T9, O15; assay: two-hybrid library CCNG1
T9 chain: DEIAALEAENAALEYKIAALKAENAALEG

O16 [3] = biological target: T10, O16; assay: two-hybrid library CCNG1
T10 chain: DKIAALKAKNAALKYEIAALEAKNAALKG

O2 [4] = biological target: T11, O2; assay: two-hybrid library CCNG1
T11 chain: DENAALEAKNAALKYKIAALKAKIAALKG

O3 [5] = biological target: T12, O3; assay: two-hybrid library CCNG1
T12 chain: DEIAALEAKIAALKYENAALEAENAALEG

O4 [6] = biological target: T13, O4; assay: two-hybrid library CCNG1
T13 chain: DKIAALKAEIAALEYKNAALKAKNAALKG

O5 [7] = biological target: T14, O5; assay: two-hybrid library CCNG1
T14 chain: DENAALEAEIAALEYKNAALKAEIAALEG

O6 [8] = biological target: T15, O6; assay: two-hybrid library CCNG1
T15 chain: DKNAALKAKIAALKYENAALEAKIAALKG

O7 [9] = biological target: T16, O7; assay: two-hybrid library CCNG1
T16 chain: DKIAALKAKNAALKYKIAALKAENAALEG

O8 [10] = biological target: T17, O8; assay: two-hybrid library CCNG1
T17 chain: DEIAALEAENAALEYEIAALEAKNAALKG

O9 [11] = biological target: T18, O9; assay: two-hybrid library CCNG1
T18 chain: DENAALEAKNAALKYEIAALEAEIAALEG

4H235-bH = biological target: T19, 4H235-bH; assay: two-hybrid library CCNG1
T19 chain: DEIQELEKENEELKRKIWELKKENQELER

4H2444-bH = biological target: T20, 4H2444-bH; assay: two-hybrid library CCNG1
T20 chain: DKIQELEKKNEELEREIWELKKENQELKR

4H2518-bH = biological target: T21, 4H2518-bH; assay: two-hybrid library CCNG1
T21 chain: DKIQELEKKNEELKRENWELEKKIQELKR

4H2585-bH = biological target: T22, 4H2585-bH; assay: two-hybrid library CCNG1
T22 chain: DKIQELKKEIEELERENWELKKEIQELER

4H264-bH = biological target: T23, 4H264-bH; assay: two-hybrid library CCNG1
T23 chain: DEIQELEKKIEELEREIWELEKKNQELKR

4H2760-bH = biological target: T24, 4H2760-bH; assay: two-hybrid library CCNG1
T24 chain: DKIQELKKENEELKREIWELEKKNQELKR

4H2859-bH = biological target: T25, 4H2859-bH; assay: two-hybrid library CCNG1
T25 chain: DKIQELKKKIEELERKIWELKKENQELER

4H2931-bH = biological target: T26, 4H2931-bH; assay: two-hybrid library CCNG1
T26 chain: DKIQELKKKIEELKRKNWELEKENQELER

4H2944-bA = biological target: T27, 4H2944-bA; assay: two-hybrid library CCNG1
T27 chain: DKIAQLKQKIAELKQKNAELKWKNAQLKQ

4H3041-bH = biological target: T28, 4H3041-bH; assay: two-hybrid library CCNG1
T28 chain: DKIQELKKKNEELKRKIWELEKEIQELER

4H3297-bH = biological target: T29, 4H3297-bH; assay: two-hybrid library CCNG1
T29 chain: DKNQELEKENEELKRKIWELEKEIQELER

4H3364-bH = biological target: T30, 4H3364-bH; assay: two-hybrid library CCNG1
T30 chain: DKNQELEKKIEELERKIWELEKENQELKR

4H3381-bH = biological target: T31, 4H3381-bH; assay: two-hybrid library CCNG1
T31 chain: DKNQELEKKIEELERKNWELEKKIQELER

4H349-bH = biological target: T32, 4H349-bH; assay: two-hybrid library CCNG1
T32 chain: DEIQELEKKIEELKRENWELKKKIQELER

4H56-bH = biological target: T33, 4H56-bH; assay: two-hybrid library CCNG1
T33 chain: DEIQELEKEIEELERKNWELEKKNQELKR

4H730-bH = biological target: T34, 4H730-bH; assay: two-hybrid library CCNG1
T34 chain: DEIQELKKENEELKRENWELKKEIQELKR

4H796-bH = biological target: T35, 4H796-bH; assay: two-hybrid library CCNG1
T35 chain: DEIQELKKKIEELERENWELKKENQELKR

4H932-bH = biological target: T36, 4H932-bH; assay: two-hybrid library CCNG1
T36 chain: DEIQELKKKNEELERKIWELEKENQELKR

4H949-bH = biological target: T37, 4H949-bH; assay: two-hybrid library CCNG1
T37 chain: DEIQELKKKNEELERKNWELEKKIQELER

P8SH = biological target: T38, P8SH; assay: two-hybrid library CCNG1
T38 chain: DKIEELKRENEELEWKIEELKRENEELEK

O13 = biological target: T39, O13; assay: two-hybrid library CCNG1
T39 chain: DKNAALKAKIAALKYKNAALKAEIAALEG

4H342-bA = biological target: T40, 4H342-bA; assay: two-hybrid library CCNG1
T40 chain: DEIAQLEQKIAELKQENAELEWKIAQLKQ

4H48-bA = biological target: T41, 4H48-bA; assay: two-hybrid library CCNG1
T41 chain: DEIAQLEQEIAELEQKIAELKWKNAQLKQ

4H491-bA = biological target: T42, 4H491-bA; assay: two-hybrid library CCNG1
T42 chain: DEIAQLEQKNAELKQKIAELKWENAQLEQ

4H3632-bN = biological target: T43, 4H3632-bN; assay: two-hybrid library CCNG1
T43 chain: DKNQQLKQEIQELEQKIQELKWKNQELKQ

4H496-bN = biological target: T44, 4H496-bN; assay: two-hybrid library CCNG1
T44 chain: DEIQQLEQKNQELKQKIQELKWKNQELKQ

P1mSN = biological target: T45, P1mSN; assay: two-hybrid library CCNG1
T45 chain: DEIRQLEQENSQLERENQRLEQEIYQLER

O14 [12] = biological target: T46, O14; assay: two-hybrid library CC0; settings: mean of both orientations
T46 chain: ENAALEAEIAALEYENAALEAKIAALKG

O15 [13] = biological target: T47, O15; assay: two-hybrid library CC0; settings: mean of both orientations
T47 chain: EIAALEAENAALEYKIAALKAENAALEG

O16 [14] = biological target: T48, O16; assay: two-hybrid library CC0; settings: mean of both orientations
T48 chain: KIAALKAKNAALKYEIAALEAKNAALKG

O2 [15] = biological target: T49, O2; assay: two-hybrid library CC0; settings: mean of both orientations
T49 chain: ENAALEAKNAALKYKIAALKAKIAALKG

O3 [16] = biological target: T50, O3; assay: two-hybrid library CC0; settings: mean of both orientations
T50 chain: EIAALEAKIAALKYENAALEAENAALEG

O4 [17] = biological target: T51, O4; assay: two-hybrid library CC0; settings: mean of both orientations
T51 chain: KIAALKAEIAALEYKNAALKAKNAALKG

O5 [18] = biological target: T52, O5; assay: two-hybrid library CC0; settings: mean of both orientations
T52 chain: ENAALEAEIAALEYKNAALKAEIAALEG

O6 [19] = biological target: T53, O6; assay: two-hybrid library CC0; settings: mean of both orientations
T53 chain: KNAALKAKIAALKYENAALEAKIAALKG

O7 [20] = biological target: T54, O7; assay: two-hybrid library CC0; settings: mean of both orientations
T54 chain: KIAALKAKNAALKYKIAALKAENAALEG

O8 [21] = biological target: T55, O8; assay: two-hybrid library CC0; settings: mean of both orientations
T55 chain: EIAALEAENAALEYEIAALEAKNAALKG

O9 [22] = biological target: T56, O9; assay: two-hybrid library CC0; settings: mean of both orientations
T56 chain: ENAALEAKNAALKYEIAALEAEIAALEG

Binder: DEIQQLEEEIAQLEQKNAALKEKNQALKY [P3A]
interaction score (P3A): -0.882 | interaction score (P4A): 2.6 | interaction score (P5A): -0.901 | interaction score (P6A): -0.905 | interaction score (P7A): -0.23 | interaction score (P8A): -0.435 | interaction score (P9A): 0.0927

Binder: DEIQELEKENEELKRKIWELKKENQELER [4H235-bH]
interaction score (4H235-bH): 0.982 | interaction score (4H2444-bH): 0.0109 | interaction score (4H2518-bH): -0.135 | interaction score (4H2585-bH): -1.55 | interaction score (4H264-bH): -0.718 | interaction score (4H2760-bH): 1.12 | interaction score (4H2859-bH): 0.589 | interaction score (4H2931-bH): -0.301 | interaction score (4H2944-bA): -0.835 | interaction score (4H3041-bH): 0.0126 | interaction score (4H3297-bH): 0.0762 | interaction score (4H3364-bH): -0.442 | interaction score (4H3381-bH): 0 | interaction score (4H349-bH): 0.108 | interaction score (4H56-bH): 0.0558 | interaction score (4H730-bH): -0.176 | interaction score (4H796-bH): -0.693 | interaction score (4H932-bH): -0.443 | interaction score (4H949-bH): -0.845

Binder: DKIAQLKQKIAELKQKNAELKWKNAQLKQ [4H2944-bA]
interaction score (4H2944-bA): -0.797 | interaction score (4H342-bA): 1.77 | interaction score (4H48-bA): -1.05 | interaction score (4H491-bA): -0.569

Binder: ENAALEAEIAALEYENAALEAKIAALKG
interaction score (O14 [12]): -2.52 | interaction score (O15 [13]): -2.74 | interaction score (O16 [14]): 0.961 | interaction score (O2 [15]): -2.38 | interaction score (O3 [16]): -2.51 | interaction score (O4 [17]): -2.52 | interaction score (O5 [18]): -0.24 | interaction score (O6 [19]): 0.177 | interaction score (O7 [20]): -1.03 | interaction score (O8 [21]): -2.58 | interaction score (O9 [22]): -2.64

The remaining lines, values ahead:

interaction score (O14 [1]): -2.21 | interaction score (O15 [2]): -1.64 | interaction score (O16 [3]): 0.545 | interaction score (O2 [4]): -1.4 | interaction score (O3 [5]): -1.94 | interaction score (O4 [6]): -1.11 | interaction score (O5 [7]): 0.398 | interaction score (O6 [8]): 0.213 | interaction score (O7 [9]): 0.14 | interaction score (O8 [10]): -2.34 | interaction score (O9 [11]): -2.25
Binder: DENAALEAEIAALEYENAALEAKIAALKG

interaction score (P8SH): -0.00526
Binder: DKIEELKRENEELEWKIEELKRENEELEK [P8SH]

interaction score (O13): -2.48 | interaction score (O14 [1]): 1.68 | interaction score (O15 [2]): 1.46 | interaction score (O16 [3]): -2.61 | interaction score (O2 [4]): -2.42 | interaction score (O3 [5]): -2.26 | interaction score (O4 [6]): -2.24 | interaction score (O5 [7]): -1.38 | interaction score (O6 [8]): -1.32 | interaction score (O7 [9]): -2.53 | interaction score (O8 [10]): -1.26 | interaction score (O9 [11]): -2.39
Binder: DKNAALKAKIAALKYKNAALKAEIAALEG [O13]

interaction score (4H3632-bN): 1.05 | interaction score (4H496-bN): -0.174 | interaction score (P1mSN): -0.649
Binder: DKNQQLKQEIQELEQKIQELKWKNQELKQ [4H3632-bN]

— PMC10397247
